Assays:
[1] = test system: inner retina (INL, IPL, retinal ganglion cell layer); assay: Transient retinal ischemia-reperfusion injury with intravitreous injection; morphometric analysis of inner retina; type: in vivo, C57/B16 mice; set-up: thickness of the INL compared with non-ischemia control / thickness of the IPL compared with non-ischemia control / surviving cells in the RGC layer compared with non-ischemia control: concentration or dose not given beside the values; details: for surviving cells in the RGC layer compared with non-ischemia control / thickness of the INL compared with non-ischemia control / thickness of the IPL compared with non-ischemia control: single intravitreous injection immediately after ischemia
Procedure: Induction of transient retinal ischemia in C57/B16 mice: Animal experiments were conducted in accordance with ARVO guidelines and were approved by the Animal Care and Use Committee of Yale University School of Medicine. Transient retinal ischemia was induced in one eye and the contralateral eye served as control. During the operation and recovery period, animals were placed on water heating pads at 37° C. […] Briefly, animals were anesthetized by i.p. injection of a mixture of 100 mg/kg Ketamine+10 mg/kg Xylazine. […] The anterior chambers were cannulated in fully anesthetized animals with a 30-gauge infusion needle connected by PE10 polyethylene tubing and IV set to a physiological saline reservoir. The intraocular pressure (IOP) of the cannulated eye was raised to 120 mmHg for 60 minutes by elevating the saline reservoir. Retinal ischemia was confirmed by direct microscopic observation of whitening of the fundus. The reperfusion was confirmed visually when needle was withdrawn from the anterior chamber. One group of animals was treated with Vetropolycin® ophthalmic ointment (Pharmaderm, Melville, N. Y.) on the ischemic eyes and allowed to recover for 24 hours, 48 hours, 7 days and 14 days before sacrifice. Other groups were kept for intravitreous injections of the PEDF and PEDF peptides.
Intravitreous injection of PEDF, PEDF peptides and encapsulated PEDF peptide: One group of animals remained uninjected to monitor ischemic damage. All other groups received intravitreal injections, which were performed under an ophthalmic microscope. […] Intravitreous injection was performed with 30-gauge beveled needle attached to PE10 polyethylene tubing and a 10 μl syringe (Hamilton, Reno, Nev.). The injections were performed through the sclera, approximately 1 mm behind the limbus. The needle remained in the vitreous cavity for 30 seconds after injection then gently withdrawn. Control groups were injected with 1 μl PBS, 1 μl control peptide (1 μg/μl), or blank nanospheres (0.1 mg/μl). […] Vetropolycin® ointment was applied to the injected eyes and animals were allowed to recover for 48 hours or 7 days before sacrifice.
Preparation of retinal tissue: at designated time points, mice were sacrificed by carbon dioxide inhalation followed by, in some cases, cervical dislocation. The eyes were enucleated, fixed in 4% paraformaldehyde for 24 hours, washed with PBS and embedded in paraffin. Five (5) μm thick sections that included the optic nerve were collected. Sections were processed for TUNEL, immunocytochemistry, or histochemical staining with hematoxylin and eosin (Surgipath, Ltd, Richmond, Ill.) using standard methods.
Morphologic and Morphometric Analysis: For each eye, three sections, which included the optic disk and were spaced at least 20 μm apart, were used for morphological analysis. The fields analyzed were 4×250 μm zones sampled from all retinal eccentricities. These zones were 500 μm away from the edge of optic disk or the ora serrata. The average measurement of these 4 zones was used for statistical analysis. The mean thickness of inner nuclear layer (INL) and inner plexiform layer (IPL) was measured using Axiovision3.1 software (Carl Zeiss MicroImaging, Inc., Thornwood, N.Y.). Total surviving cells in the retinal ganglion cell layer at the same locations were counted using light microscopy.
Statistical analysis: Twelve fields per retina were analyzed for each treatment, and a total of 72 fields were used. For statistical analysis, one-way analysis of variance (ANOVA) and Fisher tests were performed; p<0.05 was taken as significant. Data are presented as means and standard deviations.

[2] = target: VEGF receptor KDR (VEGFR2) (Homo sapiens, UniProt P35968); assay: ELISA binding to VEGF receptor KDR
Chain of VEGF receptor KDR (VEGFR2) (P35968 20-1356, species assumed): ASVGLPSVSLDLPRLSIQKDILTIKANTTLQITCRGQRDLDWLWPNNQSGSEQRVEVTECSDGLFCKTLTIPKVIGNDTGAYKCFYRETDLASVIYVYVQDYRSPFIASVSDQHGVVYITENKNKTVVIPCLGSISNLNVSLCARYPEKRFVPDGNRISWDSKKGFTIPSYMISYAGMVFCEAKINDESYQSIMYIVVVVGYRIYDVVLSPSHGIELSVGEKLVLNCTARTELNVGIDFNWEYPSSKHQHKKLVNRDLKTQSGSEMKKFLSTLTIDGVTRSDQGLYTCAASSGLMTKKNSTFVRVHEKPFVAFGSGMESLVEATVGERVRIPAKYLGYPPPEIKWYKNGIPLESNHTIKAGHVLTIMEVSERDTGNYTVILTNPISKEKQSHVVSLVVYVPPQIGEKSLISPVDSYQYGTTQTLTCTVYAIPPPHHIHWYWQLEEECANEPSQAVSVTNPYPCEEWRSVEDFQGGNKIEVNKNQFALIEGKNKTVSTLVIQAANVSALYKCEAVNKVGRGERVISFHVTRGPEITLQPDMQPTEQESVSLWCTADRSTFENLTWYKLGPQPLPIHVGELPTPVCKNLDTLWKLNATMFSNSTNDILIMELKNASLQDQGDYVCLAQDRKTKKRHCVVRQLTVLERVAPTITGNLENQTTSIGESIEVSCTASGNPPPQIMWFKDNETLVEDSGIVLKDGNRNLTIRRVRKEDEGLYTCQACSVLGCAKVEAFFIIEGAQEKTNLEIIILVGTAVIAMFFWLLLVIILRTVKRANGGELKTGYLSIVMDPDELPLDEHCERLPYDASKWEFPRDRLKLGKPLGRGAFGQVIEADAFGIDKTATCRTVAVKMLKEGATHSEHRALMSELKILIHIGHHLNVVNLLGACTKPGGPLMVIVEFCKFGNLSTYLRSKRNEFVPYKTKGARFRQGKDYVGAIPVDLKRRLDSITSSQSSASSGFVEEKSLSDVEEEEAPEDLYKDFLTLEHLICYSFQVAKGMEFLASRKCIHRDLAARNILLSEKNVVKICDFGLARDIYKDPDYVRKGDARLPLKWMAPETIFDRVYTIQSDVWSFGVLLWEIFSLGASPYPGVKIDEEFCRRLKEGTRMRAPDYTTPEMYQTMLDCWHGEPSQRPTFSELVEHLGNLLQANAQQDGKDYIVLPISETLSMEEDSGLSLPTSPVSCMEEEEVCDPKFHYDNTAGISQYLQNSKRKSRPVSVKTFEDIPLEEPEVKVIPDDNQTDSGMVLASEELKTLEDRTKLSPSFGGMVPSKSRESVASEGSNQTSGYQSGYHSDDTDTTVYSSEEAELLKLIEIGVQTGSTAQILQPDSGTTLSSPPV

VEGFR2 = VEGFR2 (Homo sapiens, UniProt P35968); assay: Block of VEGFR2 phosphorylation; details: compared to recombinant, non-modified human PEDF
Chain of VEGFR2 (P35968 20-1356, species assumed): as above

VEGFR1 = VEGFR1 (Homo sapiens, UniProt P17948); assay: VEGFR1 binding; details: compared to PEDF purified from human plasma or recombinant non-modified human PEDF
Chain of VEGFR1 (P17948 27-1338, species assumed): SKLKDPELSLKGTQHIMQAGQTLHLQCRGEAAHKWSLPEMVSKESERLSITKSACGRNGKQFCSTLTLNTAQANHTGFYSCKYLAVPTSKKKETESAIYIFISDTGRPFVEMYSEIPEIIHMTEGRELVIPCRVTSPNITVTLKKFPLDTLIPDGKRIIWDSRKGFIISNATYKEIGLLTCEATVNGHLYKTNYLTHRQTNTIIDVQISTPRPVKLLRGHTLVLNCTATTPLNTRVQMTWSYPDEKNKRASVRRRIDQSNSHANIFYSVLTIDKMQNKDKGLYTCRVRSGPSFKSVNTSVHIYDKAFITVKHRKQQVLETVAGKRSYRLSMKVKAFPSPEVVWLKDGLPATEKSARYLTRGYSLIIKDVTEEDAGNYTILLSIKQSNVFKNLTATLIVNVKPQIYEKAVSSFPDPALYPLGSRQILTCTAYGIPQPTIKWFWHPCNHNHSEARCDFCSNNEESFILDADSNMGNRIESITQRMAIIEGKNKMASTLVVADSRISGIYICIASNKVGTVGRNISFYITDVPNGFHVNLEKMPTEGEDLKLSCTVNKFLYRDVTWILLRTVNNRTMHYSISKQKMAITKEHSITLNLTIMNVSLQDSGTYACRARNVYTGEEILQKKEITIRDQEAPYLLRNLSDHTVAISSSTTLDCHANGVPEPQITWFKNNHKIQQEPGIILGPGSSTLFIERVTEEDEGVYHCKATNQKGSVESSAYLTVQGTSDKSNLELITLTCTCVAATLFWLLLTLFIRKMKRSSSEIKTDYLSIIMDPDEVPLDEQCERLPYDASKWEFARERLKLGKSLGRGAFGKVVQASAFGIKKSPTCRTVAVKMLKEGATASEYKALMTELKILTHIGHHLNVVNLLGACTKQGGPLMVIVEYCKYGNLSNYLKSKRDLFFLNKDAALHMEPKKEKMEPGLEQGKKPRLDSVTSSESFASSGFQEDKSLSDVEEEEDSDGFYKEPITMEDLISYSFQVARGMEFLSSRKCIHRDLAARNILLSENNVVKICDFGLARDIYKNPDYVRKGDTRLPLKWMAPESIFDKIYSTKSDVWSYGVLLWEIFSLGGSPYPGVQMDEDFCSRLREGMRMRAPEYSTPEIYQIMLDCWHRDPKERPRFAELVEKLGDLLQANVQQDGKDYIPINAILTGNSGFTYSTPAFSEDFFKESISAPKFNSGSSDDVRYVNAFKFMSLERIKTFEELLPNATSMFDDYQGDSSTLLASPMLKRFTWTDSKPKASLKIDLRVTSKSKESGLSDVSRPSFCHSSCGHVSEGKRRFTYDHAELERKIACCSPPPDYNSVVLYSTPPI

VEGF = assay: Block of VEGF mitogenic signaling; details: compared to recombinant, non-modified human PEDF
GFAP = GFAP immunocytochemical labeling of Müller glial cells after transient ischemia; type: in vivo, C57/B16 mice
Procedure: Induction of transient retinal ischemia in C57/B16 mice: Animal experiments were conducted in accordance with ARVO guidelines and were approved by the Animal Care and Use Committee of Yale University School of Medicine. Transient retinal ischemia was induced in one eye and the contralateral eye served as control. During the operation and recovery period, animals were placed on water heating pads at 37° C. Eighty-one 10-14 weeks male C57/B16 mice (Charles River Laboratories, Wilmington, Mass., weighing […]) were used in this experiment. To induce retinal ischemia, a previously established technique with some modifications was used (Hughes, 1991, Exp Eye Res. 53(5):573-582; Buchi et al., 1991, Opthalmologica 203 (3): 138-147). Briefly, animals were anesthetized by i.p. injection of a mixture of 100 mg/kg Ketamine+10 mg/kg Xylazine. The corneas were topically anesthetized with 0.5% proparacaine hydrochloride (Bausch & Lomb Pharmaceuticals, Inc., Tampa, Fla.), and the pupils dilated with 2.5% phenylephrine (Bausch & Lomb Pharmaceuticals, Inc., Tampa, Fla.). The anterior chambers were cannulated in fully anesthetized animals with a 30-gauge infusion needle connected by PE10 polyethylene tubing and IV set to a physiological saline reservoir. The intraocular pressure (IOP) of the cannulated eye was raised to 120 mmHg for 60 minutes by elevating the saline reservoir. Retinal ischemia was confirmed by direct microscopic observation of whitening of the fundus. The reperfusion was confirmed visually when needle was withdrawn from the anterior chamber. One group of animals was treated with Vetropolycin® ophthalmic ointment (Pharmaderm, Melville, N. Y.) on the ischemic eyes and allowed to recover for 24 hours, 48 hours, 7 days and 14 days before sacrifice. Other groups were kept for intravitreous injections of the PEDF and PEDF peptides.
Intravitreous injection of PEDF, PEDF peptides and encapsulated PEDF peptide: One group of animals remained uninjected to monitor ischemic damage. All other groups received intravitreal injections, which were performed under an ophthalmic microscope. Experimental groups received 1 μl native PEDF protein (1 μg/μl), PEDF82-121 peptide (1 μg/μl), PEDF76-95 peptide (1 μg/μl), PEDF91-110 peptide (1 μg/μl), PEDF106-125 peptide (1 μg/μl) or PLGA PEDF82-121 nanospheres (0.1 mg/μl, less than 1.6 μg PEDF82-121 peptide when fully released) immediately after the end of the transient ischemia. Intravitreous injection was performed with 30-gauge beveled needle attached to PE10 polyethylene tubing and a 10 μl syringe (Hamilton, Reno, Nev.). The injections were performed through the sclera, approximately 1 mm behind the limbus. The needle remained in the vitreous cavity for 30 seconds after injection then gently withdrawn. […]

[3] = 7 days post ischemia, free single bolus or nanospheres
[4] = 48 hours after ischemia reperfusion

PEDF76-95: residues 76 to 95 of human PEDF, TNVLLSPLSVATALSALSLG (SEQ ID NO: 5) ((1)..(20) Residues 76-95 of human PEDF; listed as Homo sapiens)
protection of the IPL (in words) ([1]; seven days after ischemic injury): protected | protection of the INL (in words) ([1]; seven days after ischemic injury, versus control peptide PEDF136-155): protected the INL significantly

PEDF91-110: residues 91 to 110 of human PEDF, ALSLGAEQRTESIIHRALYY (SEQ ID NO: 7) ((1)..(20) Residues 91-110 of human PEDF; listed as Homo sapiens)
protection of the retinal ganglion cell layer (in words) [1, 3]: significantly protecting | RGCs protected from dying after ischemic injury ([1]; after ischemic injury): about 85%

PEDF106-125: residues 106 to 125 of human PEDF, RALYYDLISSPDIHGTYKEL (SEQ ID NO: 9) ((1)..(20) Residues 106-125 of human PEDF; listed as Homo sapiens)
protection of the retinal ganglion cell layer (in words) [1, 3]: significantly protecting

B1: coPEDF: bacterially expressed codon-optimized fusion protein: thioredoxin, His6 tag, thrombin site and S-Tag fused N-terminally to human PEDF (protein)
chain: QNPASPPEEGSPDPDSTGALVEEEDPFFKVPVNKLAAAVSNFGYDLYRVRSSMSPTTNVLLSPLSVATALSALSLGADERTESIIHRALYYDLISSPDIHGTYKELLDTVTAPQKNLKSASRIVFEKKLRIKSSFVAPLEKSYGTRPRVLTGNPRLDLQEINNWVQAQMKGKLARSTKEIPDEISILLLGVAHFKGQWVTKFDSRKTSLEDFYLDEERTVRVPMMSDPKAVLRYGLDSDLSCKIAQLPLTGSMSIIFFLPLKVTQNLTLIEESLTSEFIHDIDRELKTVQAVLTVPKLKLSYEGEVTKSLQEMKLQSLFDSPDFSKITGKPIKLTQVEHRAGFEWNEDGAGTTPSPGLQPAHLTFPLDYHLNQPFIFVLRDTDTGALLFIGKILDPRGP
modifications: left off: large carriers; small tags and cut ends
notes: bacterially expressed codon-optimized fusion protein: thioredoxin, His6 tag, thrombin site and S-Tag fused N-terminally to human PEDF
binding to VEGF receptor KDR (VEGFR2) [2]: improves binding | block of VEGFR2 phosphorylation (VEGFR2): greater effect | VEGFR1 binding (VEGFR1): increased VEGFR1 binding | block of VEGF mitogenic signaling (VEGF): greater effect

B2: PEDF protein: full length pigment epithelium-derived factor, a 50 kD protein of the serpin family (protein, listed as Homo sapiens)
chain: MQALVLLLCIGALLGHSSCQNPASPPEEGSPDPDSTGALVEEEDPFFKVPVNKLAAAVSNFGYDLYRVRSSMSPTTNVLLSPLSVATALSALSLGADERTESIIHRALYYDLISSPDIHGTYKELLDTVTAPQKNLKSASRIVFEKKLRIKSSFVAPLEKSYGTRPRVLTGNPRLDLQEINNWVQAQMKGKLARSTKEIPDEISILLLGVAHFKGQWVTKFDSRKTSLEDFYLDEERTVRVPMMSDPKAVLRYGLDSDLSCKIAQLPLTGSMSIIFFLPLKVTQNLTLIEESLTSEFIHDIDRELKTVQAVLTVPKLKLSYEGEVTKSLQEMKLQSLFDSPDFSKITGKPIKLTQVEHRAGFEWNEDGAGTTPSPGLQPAHLTFPLDYHLNQPFIFVLRDTDTGALLFIGKILDPRGP
GFAP labeling compared to PBS injections (GFAP; 48 hours after transient ischemia): less GFAP labeling | GFAP staining (GFAP; 7 days after injury): very similar staining | surviving cells in the RGC layer compared with non-ischemia control [1, 4]: 85.4% | thickness of the INL compared with non-ischemia control [1, 4]: 100% | thickness of the IPL compared with non-ischemia control [1, 4]: 86.6% | protection of the retinal ganglion cell layer (in words) ([1]; 48 hours post ischemia, versus PBS or PEDF136-155): significantly reduced cell death | surviving cells in the RGC layer compared with non-ischemia control ([1]; 7 days after injury): 87.4% | thickness of the INL compared with non-ischemia control ([1]; 7 days after injury): 82.5% | thickness of the IPL compared with non-ischemia control ([1]; 7 days after injury): 78.2% | protection of the retinal ganglion cell layer (in words) [1, 3]: significantly reduced cell death | IPL thickness after ischemic injury (in words) ([1]; compared to PBS injected controls, time not stated): prevented the thinning of the IPL

From US20090069241A1, “Compositions and Methods for Use of Pigment Epithelial Derived Factor (PEDF) Peptide Fragments” (Yale University, priority 2006, published 2009)
